The values below come from PMC6329974 (Proceedings of the National Academy of Sciences of the …, 2018).

B1: proteasome-activating nucleotidase (PAN) from Archaeoglobus fulgidus (enzyme, UniProt O28303 1-398, looked up)
chain: MGDSEIQYLLEKLKKLEEDYYKLRELYRRLEDEKKFIESERIRYEREVRRLRSEVERLRSPPLLVGVVSDILEDGRVVVKSSTGPKFVVNTSQYINEEELKPGARVALNQQTLAIVNVLPTSKDPMVYGFEVEEKPEVSYEDIGGLDVQIEEIREAVELPLLKPELFAEVGIEPPKGVLLYGPPGTGKTLLAKAVANQTRATFIRVVGSEFVQKYIGEGARLVREVFQLAKEKAPSIIFIDELDAIAARRTNSDTSGDREVQRTMMQLLAELDGFDPRGDVKVIGATNRIDILDPAILRPGRFDRIIEVPLPTFEGRIQIFKIHTRKMKLAEDVDFKELARITEGASGADIKAICTEAGMFAIREERAKVTMLDFTKAIEKVLKKTTPIPDLKGVMFV
B3: CP α-subunit from Archaeoglobus fulgidus (natural protein, UniProt O29760 1-246, looked up)
chain: MHLPQMGYDRAITVFSPDGRLFQVEYAREAVKRGATAIGIKCKEGVILIADKRVGSKLLEADTIEKIYKIDEHICAATSGLVADARVLIDRARIEAQINRLTYDEPITVKELAKKICDFKQQYTQYGGVRPFGVSLLIAGVDEVPKLYETDPSGALLEYKATAIGMGRNAVTEFFEKEYRDDLSFDDAMVLGLVAMGLSIESELVPENIEVGYVKVDDRTFKEVSPEELKPYVERANERIRELLKK

What all share (test): cryo-EM structure
Data set [1] deals with the molecule itself.
Data set [2] deals with the molecule itself. The source holds these as a separate data set.
Data set [3] addresses B3.
Data set [4] addresses B1.

The stoichiometry N is a count of units in the complex or per binding partner. In the case of B1, the “stoichiometry N” value in the data set “cryo-EM structure [1]” came out at 6.

B2: CP β-subunit from Archaeoglobus fulgidus (natural protein, UniProt Q9P996 12-213, looked up)
chain: TTTVGLVCKDGVVMATEKRATMGNFIASKAAKKIYQIADRMAMTTAGSVGDAQFLARIIKIEANLYEIRRERKPTVRAIATLTSNLLNSYRYFPYLVQLLIGGIDSEGKSIYSIDPIGGAIEEKDIVATGSGSLTAYGVLEDRFTPEIGVDEAVELAVRAIYSAMKRDSASGDGIDVVKITEDEFYQYSPEEVEQILAKFRK
In the case of B2, the binding result (in “cryo-EM structure [2]”; in data set [3]) was “binds” throughout.
On to B3, for which the binding result in data set [4] is recorded as “binds”.
